Experimental data reported in patent publication US20190309044A1, “POLYPEPTIDES AND USES THEREOF AS A DRUG FOR TREATMENT OF AUTOIMMUNE DISORDERS” (Compugen Ltd., priority 2017, published 2019).

Test system: total splenocytes and lymph node cells
Assay: Ex vivo recall responses, adoptive transfer R-EAE
Assay type: in vivo, mouse
Conditions: day 45; treatment from onset of remission
Protocol: On day 45 (unless otherwise indicated) following cell transfer, spleen and cervical lymph nodes or CNS from 3 representative mice of each group were collected, and the total cells were activated ex vivo at 0.5×10^6 cells per well with either OVA323-339, PLP139-151, PLP178-191, MBP84-104 (20 ug/ml), or anti-CD3 (1 ug/ml). Two sets of cultures were set up side-by-side. One set was pulsed with 1uCi of tritiated thymidine at 24 hours and harvested at 72 hours to determine cell proliferation. In the second set of cultures, supernatants were collected at 72 hours and tested for peptide-specific cytokine production as determined by LiquiChip.

B1: C1ORF32 ECD-Fc (SEQ ID NO:42): human-mouse fusion protein: human C1ORF32 ECD fused to mouse immunoglobulin Fc (SEQ ID NO:42) (protein)
chain: LQVTVPDKKKVAMLFQPTVLRCHFSTSSHQPAVVQWKFKSYCQDRMGESLGMSSTRAQSLSKRNLEWDPYLDCLDSRRTVRVVASKQGSTVTLGDFYRGREITIVHDADLQIGKLMWGDSGLYYCIITTPDDLEGKNEDSVELLVLGRTGLLADLLPSFAVEIMGSENLYFQGSGEPRGPTIKPCPPCKCPAPNLLGGPSVFIFPPKIKDVLMISLSPIVTCVVVDVSEDDPDVQISWFVNNVEVHTAQTQTHREDYNSTLRVVSALPIQHQDWMSGKEFKCKVNNKDLPAPIERTISKPKGSVRAPQVYVLPPPEEEMTKKQVTLTCMVTDFMPEDIYVEWTNNGKTELNYKNTEPVLDSDGSYFMYSKLRVEKKNWVERNSYSCSVVHEGLHNHHTTKSFSRTPGK
modifications: Fusion protein human C1ORF32-ECD fused to mouse IgG2a Fc
  recall responses, cellular proliferation of splenocytes and lymph node cells: decreased level of cellular proliferation
